Assay [1] deals with T1, N末端FLAG−tag付加型カニクイザルROBO4 cynoROBO4−2 (cynomolgus monkey, UniProt Q8WZ75 28-1007 (human entry)).
T1 construct: also called pCI−FLAG−cynoROBO4−2
T1 chain: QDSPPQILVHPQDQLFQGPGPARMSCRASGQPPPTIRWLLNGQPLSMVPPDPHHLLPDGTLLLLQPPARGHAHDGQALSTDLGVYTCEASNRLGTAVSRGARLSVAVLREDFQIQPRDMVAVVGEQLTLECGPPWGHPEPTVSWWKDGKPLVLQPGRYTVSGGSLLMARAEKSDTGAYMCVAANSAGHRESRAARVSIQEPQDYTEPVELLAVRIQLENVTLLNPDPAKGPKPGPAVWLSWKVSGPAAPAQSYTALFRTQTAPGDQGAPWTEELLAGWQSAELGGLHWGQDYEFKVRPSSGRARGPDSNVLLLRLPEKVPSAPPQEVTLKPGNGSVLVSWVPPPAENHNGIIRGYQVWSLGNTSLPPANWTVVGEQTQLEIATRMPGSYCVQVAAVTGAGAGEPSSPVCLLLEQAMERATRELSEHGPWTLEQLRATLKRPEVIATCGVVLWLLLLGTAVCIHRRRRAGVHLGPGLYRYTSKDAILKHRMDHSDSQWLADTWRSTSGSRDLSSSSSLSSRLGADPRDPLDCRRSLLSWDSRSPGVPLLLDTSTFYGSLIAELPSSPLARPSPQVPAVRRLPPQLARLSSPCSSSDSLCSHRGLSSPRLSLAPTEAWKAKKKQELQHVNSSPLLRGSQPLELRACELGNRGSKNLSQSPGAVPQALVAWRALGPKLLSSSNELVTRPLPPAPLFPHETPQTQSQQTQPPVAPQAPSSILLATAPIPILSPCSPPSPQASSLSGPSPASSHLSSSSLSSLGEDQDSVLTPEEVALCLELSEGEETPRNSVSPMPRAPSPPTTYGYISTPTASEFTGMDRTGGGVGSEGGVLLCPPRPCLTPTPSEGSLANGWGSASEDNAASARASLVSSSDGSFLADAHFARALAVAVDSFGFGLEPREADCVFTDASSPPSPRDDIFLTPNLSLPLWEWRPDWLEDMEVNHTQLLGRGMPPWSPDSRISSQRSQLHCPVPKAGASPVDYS
The assay can be described thus: flow cytometry, transfected HEK293 cells.

For assay [2], the target named is T2, N末端FLAG−tag付加型カニクイザルROBO4 cynoROBO4−1 (cynomolgus monkey, UniProt Q8WZ75 28-1007 (human entry)).
T2 construct: also called pCI−FLAG−cynoROBO4−1
T2 chain: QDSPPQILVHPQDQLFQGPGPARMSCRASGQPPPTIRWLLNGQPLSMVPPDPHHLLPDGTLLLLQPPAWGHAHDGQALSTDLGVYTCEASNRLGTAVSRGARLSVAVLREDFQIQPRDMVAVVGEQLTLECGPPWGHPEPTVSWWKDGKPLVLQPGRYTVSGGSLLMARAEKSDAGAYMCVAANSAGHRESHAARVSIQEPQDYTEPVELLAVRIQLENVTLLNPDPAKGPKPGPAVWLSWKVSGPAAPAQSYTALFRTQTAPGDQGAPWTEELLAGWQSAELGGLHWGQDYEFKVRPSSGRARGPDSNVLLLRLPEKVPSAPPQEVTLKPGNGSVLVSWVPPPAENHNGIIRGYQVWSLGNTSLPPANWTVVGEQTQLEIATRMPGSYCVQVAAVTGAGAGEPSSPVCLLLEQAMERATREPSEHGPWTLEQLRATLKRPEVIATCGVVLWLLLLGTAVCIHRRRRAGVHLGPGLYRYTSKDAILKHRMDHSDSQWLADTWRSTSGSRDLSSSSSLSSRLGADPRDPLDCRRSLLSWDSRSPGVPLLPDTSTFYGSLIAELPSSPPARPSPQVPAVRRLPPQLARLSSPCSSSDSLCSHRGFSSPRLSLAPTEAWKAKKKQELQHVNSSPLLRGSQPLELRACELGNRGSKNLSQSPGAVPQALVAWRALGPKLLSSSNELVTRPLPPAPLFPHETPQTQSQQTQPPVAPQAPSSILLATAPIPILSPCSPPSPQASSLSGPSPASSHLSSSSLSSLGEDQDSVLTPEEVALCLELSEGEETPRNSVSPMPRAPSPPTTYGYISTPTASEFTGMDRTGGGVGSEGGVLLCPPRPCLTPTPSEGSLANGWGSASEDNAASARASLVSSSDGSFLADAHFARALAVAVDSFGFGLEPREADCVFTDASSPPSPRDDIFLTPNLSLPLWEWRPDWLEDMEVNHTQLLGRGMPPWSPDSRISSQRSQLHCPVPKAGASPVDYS
The assay can be described thus: flow cytometry, transfected HEK293 cells. (A flow cytometer gives signals particle by particle.)

In assay [3] the target is T3, rROBO4−ECD (ヒトROBO4細胞外領域ポリペプチド) (human, UniProt Q8WZ75 28-461).
T3 construct: It was cloned in pEF6/V5-His-TOPO; also called ヒトROBO4−ECD; rROBO4-ECD
T3 sequence: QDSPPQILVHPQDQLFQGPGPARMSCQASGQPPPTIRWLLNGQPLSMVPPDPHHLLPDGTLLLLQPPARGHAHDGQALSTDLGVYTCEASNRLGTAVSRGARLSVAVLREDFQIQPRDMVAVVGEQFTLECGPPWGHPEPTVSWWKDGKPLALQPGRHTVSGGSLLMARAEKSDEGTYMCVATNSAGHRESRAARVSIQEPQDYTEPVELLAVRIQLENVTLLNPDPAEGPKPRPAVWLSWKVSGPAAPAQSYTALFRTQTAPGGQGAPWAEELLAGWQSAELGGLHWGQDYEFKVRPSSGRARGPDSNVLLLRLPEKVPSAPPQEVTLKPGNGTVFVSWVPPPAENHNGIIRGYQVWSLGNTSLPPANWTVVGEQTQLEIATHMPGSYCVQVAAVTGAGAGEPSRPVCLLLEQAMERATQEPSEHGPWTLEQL
The assay can be described thus: SPR, Biacore 3000; antibody captured by anti-human IgG on CM5 chip, rROBO4-ECD (0.1-200 nM) as analyte, 1:1 model.

B1: ヒト化MAb1抗体 H−2143 (antibody, human IgG2, kappa, V domains shown)
VH: EVQLVESGGGLVQPGGSLRLSCAASGFTFSTYAMSWVRQAPGKRLEWVATISQGGTYTYYPDSVKGRFTISRDNAKNTLYLQMNSLRAEDTAVYYCARLIYYDYLDYWGQGTLVTVSS
VL: DIVMTQSPLSLPVTLGEPASISCRSSQSLENENKNLYLNWYLQKPGQSPQLLIYRVSNRFSGVPDRFSGSGSGTDFTLKISRVEAEDVGVYYCLQVTHVPWTFGPGTKVDIKR
notes: Humanised IgG2 / kappa; also called H-2143; hMAb1-H4 / hMAb1-L2
Turning to B1, the binding result in assay [1] and in assay [2] was “binds” in each case. Binding in assay [3] was characterised by a dissociation constant (Kd) of 1.7 nM.

B2: ヒト化MAb1抗体 H−2140 (antibody, human IgG2, kappa, V domains shown)
VH: EVQLVESGGGLVQPGGSLRLSCAASGFTFSTYAMSWVRQAPGKRLEWVATISQGGTYTYYPDSVKGRFTISRDNAKNTLYLQMNSLRAEDTAVYYCARLIYYDYLDYWGQGTLVTVSS
VL: DIVMTQSPLSLPVTLGEPASISCRSSQSLENSNGNTYLNWYLQKPGQSPQLLIYRVSNRFSGVPDRFSGSGSGTDFTLKISRVEAEDVGVYYCLQVTHVPWTFGPGTKVDIKR
notes: Humanised IgG2 / kappa; also called H-2140; hMAb1-H4 / hMAb1-L1
Turning to B2, the binding result in assay [1] and in assay [2] was “binds” throughout. In addition, the Kd (as a rule, a measure of binding affinity in units of concentration) in assay [3] worked out at 1.8 nM.

B3: ヒト化MAb1抗体 H−1143 (antibody, human IgG2, kappa, V domains shown)
VH: EVQLVESGGGLVQPGGSLRLSCAASGFTFSTYAMSWVRQAPGKGLEWVATISQGGTYTYYPDSVKGRFTISRDNAKNTLYLQMNSLRAEDTAVYYCARLIYYDYLDYWGQGTLVTVSS
VL: DIVMTQSPLSLPVTLGEPASISCRSSQSLENENKNLYLNWYLQKPGQSPQLLIYRVSNRFSGVPDRFSGSGSGTDFTLKISRVEAEDVGVYYCLQVTHVPWTFGPGTKVDIKR
notes: Humanised IgG2 / kappa; also called H-1143; hMAb1-H2 / hMAb1-L2
With B3, the binding result in assay [1] and in assay [2] was “binds” in each case. For the same molecule, the Kd in assay [3] was found to be 3.5 nM.

These data come from patent JP2014141434A (dated 2014).
